In publication PMC6265457 (Nucleic Acids Research, 2018):
Values belong to the binder of their own block, whether it stands above or below them.

Columns and labels:
Assay in all cases: pull-down
[1] = target: T1, FLAG-Swd2 (S. cerevisiae, UniProt P36104 1-329)
T1 sequence: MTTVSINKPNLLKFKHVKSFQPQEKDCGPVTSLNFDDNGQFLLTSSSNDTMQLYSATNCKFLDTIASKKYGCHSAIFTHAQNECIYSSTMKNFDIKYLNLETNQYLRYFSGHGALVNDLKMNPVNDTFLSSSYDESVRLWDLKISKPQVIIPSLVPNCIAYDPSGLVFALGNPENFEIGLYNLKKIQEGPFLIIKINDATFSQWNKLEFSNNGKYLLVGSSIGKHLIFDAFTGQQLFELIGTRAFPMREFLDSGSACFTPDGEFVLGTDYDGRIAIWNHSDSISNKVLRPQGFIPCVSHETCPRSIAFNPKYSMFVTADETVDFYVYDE

[2] = target: T2, FLAG-Spp1 (wild type) (S. cerevisiae, UniProt Q03012 1-353)
T2 sequence: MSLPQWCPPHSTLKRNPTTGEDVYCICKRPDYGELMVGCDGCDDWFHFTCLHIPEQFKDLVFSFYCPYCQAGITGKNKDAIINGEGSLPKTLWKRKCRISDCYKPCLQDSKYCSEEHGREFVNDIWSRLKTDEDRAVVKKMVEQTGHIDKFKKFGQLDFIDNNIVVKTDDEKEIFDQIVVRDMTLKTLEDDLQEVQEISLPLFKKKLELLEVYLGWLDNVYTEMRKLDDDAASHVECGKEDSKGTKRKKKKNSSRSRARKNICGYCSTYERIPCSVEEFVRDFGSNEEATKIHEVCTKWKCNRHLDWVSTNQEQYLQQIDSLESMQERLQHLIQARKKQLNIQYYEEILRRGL

[3] = target: T3, FLAG-Swd1 (S. cerevisiae, UniProt P39706 1-426)
T3 sequence: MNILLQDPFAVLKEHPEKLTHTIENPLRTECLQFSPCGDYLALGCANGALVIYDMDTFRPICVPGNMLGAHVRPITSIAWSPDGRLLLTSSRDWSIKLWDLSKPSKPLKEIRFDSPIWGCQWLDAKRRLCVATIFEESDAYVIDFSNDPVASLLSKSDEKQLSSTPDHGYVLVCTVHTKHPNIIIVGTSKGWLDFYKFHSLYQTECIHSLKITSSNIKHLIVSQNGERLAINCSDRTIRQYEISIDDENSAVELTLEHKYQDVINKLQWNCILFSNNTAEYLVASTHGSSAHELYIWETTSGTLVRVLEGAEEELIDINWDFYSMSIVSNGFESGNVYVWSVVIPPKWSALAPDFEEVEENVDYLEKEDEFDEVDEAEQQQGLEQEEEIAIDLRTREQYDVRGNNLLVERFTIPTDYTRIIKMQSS

binding result [1]: binds
B1: GST-tagged Set1 fragment, residues 124–229 (domain or fragment)
chain: TESALLLQQRPPSVLRYNTDNLKSKFHYFDPIKGEFFNKDKMLSWKATDKEFSETGYYVVKELQDGQFKFKIKHRHPEIKASDPRNENGIMTSGKVATHRKCRNSL

binding result [2]: binds
B2: GST-tagged n-SET fragment (Set1 residues 762–937) (domain or fragment)
chain: MDLQNAIKDEEDMLILKQLLSTYTPTVTPETSAALEYKIWQSRRKVLEEEKASDWQIELNGTLFDSELQPGSSFKAEGFRKIADKLKINYLPHRRRVHQPLNTVNIHNERNEYTPELCQREESSNKEPSDSVPQEVSSSRDNRASNRRFQQDIEAQKAAIGTESELLSLNQLNKRK

binding result [3]: binds
B3: GST-tagged Set1 fragment, residues 1–123 (domain or fragment)
chain: MSNYYRRAHASSGSYRQPQEQPQYSRSGHYQYSNGHSHQQYSSQYNQRRRYNHNDGTRRRYNDDRPHSSNNASTRQYYATNNSQSGPYVNKKSDISSRRGMSQSRYSNSNVHNTLASSSGSLP
